Source: publication PMC7954794, “Protein context shapes the specificity of SH3 domain-mediated interactions in vivo” (Nature Communications, 2021)

Legend:
Assay type in all cases: cell-based, Saccharomyces cerevisiae
BEM1-2 = assay: DHFR-PCA on solid medium, bait BEM1-2 (Fig. 1B); settings: bait BEM1-2, label = prey
Source text: (§1) Supplement 41467_2021_21873_MOESM8_ESM.xlsx, sheet "Fig1B" | column: medsize; medrep; Ratio; Score

ABP1 = assay: DHFR-PCA on solid medium, bait ABP1 (Fig. 1B); settings: bait ABP1, label = prey
Source text: as §1

BEM1-1 = assay: DHFR-PCA on solid medium, bait BEM1-1 (Fig. 1B); settings: bait BEM1-1, label = prey
Source text: as §1

[1] = only significant differences showed, PPIs completely lost have a ratio of 0.1 and the gained PPIs 2.5

B1: YPR055W (protein, UniProt P32855 1-1065, looked up)
Exocyst complex component SEC8: MDYLKPAQKGRRRGLSINSLSETQQSAMNSSLDHLQNDLNRINLQWNRILSDNTNPLELALAFLDDTSVGLGHRYEEFNQLKSQIGSHLQDVVNEHSQVFNTNVASYGKAVSSIMQAQEQTLNLKNCLKEANEKITTDKGSLQELNDNNLKYTKMIDVLVNIEELLQIPEKIEENIRKENFHQVQILLERGFILMNNKSLKTVEILKPINQQLELQEHLLFNNLIEEIHDIMYSKSNKTNFTRVTNNDIFKIISISHNGFTSLENYLYNIVNIDIMEHSKTINKNLEQFIHDQSLNKGNIMLQENAATQAPLAPSRNQENEGFNRIGFLLKTINNINKLPVAFNIITERAKEEIHNIIVKSTESIRSKHPSLLKMATSLKNDNHFGLPVQDILSIILRECFWEIFLKLLYAIQCHRAIFEMSNILQPTSSAKPAFKFNKIWGKLLDEIELLLVRYINDPELISSNNGSIKPINGATNNAPTLPKRKNPKIFSLEYNIEDNSSVKDQAFELKALLKDIFPGFSVSSNMDLDSIYVKDESFEQDEPLVPPSVFNMKVILDPFLLFTQSTSTIVPSVLTQNTISSLTFFDDYMNKSFLPKIQMTMDYLFTVEVESNNPYALELSDENHNIFKTALDFQRLFYNLLNVFNTANTFREKISYCILDLLNHFYNYYLGLFNSLIGTSDRHLTRKIITAWLQNGILMDQEQKILNGDETLFHEESIELFKEIPHFYQAGKGLSKSDLFNNLTLDTILQFSASVLWILNWLPGLKKAINIDEVSQEPMLDADRLRSSWTFSESMDLNYSNPSSSPNSLGNLKILLDDKASKKFDETIDGFKTLKFKLITILRFNIRALCIYDIGSFFQNTKIWNMDVGSIELDQNIASLISELRRTESKLKQQLPEKEKNSIFIGLDIVNNYALIKGAKSIKVLNHNGIKKMLRNVNVLQHAYRNLSSEPSKINMNVTMNFYSLCGSSEAELFEYIKDNELPHCSVEDLKTILRLQFSEEMHRQLKRQSTSSTKGSIKPSNKRYTEALEKLSNLEKEQSKEGARTKIGKLKSKLNAVHTANEK
medrep (log2 median colony size normalized to plate background, PCA score) (BEM1-2; 2-8 replicates): 1.322
Ratio (SH3-deleted/WT medrep) (BEM1-2; [1]): 0.1
medrep (log2 median colony size normalized to plate background, PCA score) (ABP1; 2-4 replicates): 1.475
Ratio (SH3-deleted/WT medrep) (ABP1; [1]): 0.1
medrep (log2 median colony size normalized to plate background, PCA score) (BEM1-1; 2-8 replicates): 1.322
Ratio (SH3-deleted/WT medrep) (BEM1-1; [1]): 0.1
